Results published in a protein production outcome set (Wang et al. 2014).

Assay: label from the status in PepcDB records

Sequence	protein production
DTRWLAFNIQRAVFSDRRVREAITLAFDFEWMNKALFYNAWSRTNSYFQNTEYAARNYPDAAELVLLAPMKKDLPPEVFTQIYQPPVSKGDGYDRDNLLKADKLLNEAGWVLKGQQRVNATTGQPLSFELLLPASSNSQWVLPFQHSLQRLGINMDIRKVDNSQITNRMRNRDYDMMPRLWRAMPWPSSDLQISWSSEYINSTYNAPGVQSPVIDSLINQIIAAQGNKEKLLPLGRALDRVLTWNYYMLPMWYMA	failed
DVTYDGHPVPGSPYTVEASLPPDPSKVKAHGPGLEGGLVGKPAEFTIDTKGAGTGGLGLTVEGPCEAKIECSDNGDGTCSVSYLPTKPGEYFVNILFEEVHIPGSPFKADIEMPFDPS	not failed
EALQGLLGAGWWELCPDTAEILLASRLAASLHLPEDGARLNVQAWLELIHPADRGELSSRLQELKLGKPLLLNVRLHEPDPSAPQRWYRLQGQALGRGESQRLVGFMLDISD	failed
EAPLLYGDSSPEIVLVGHGSTYGVIKEIVDIFSKDKKIAMMHFSQIYPFPERDRFDYIEFLKNANLVISVENNATGQFAKLMRAETGFEFARQILKYDGRPFTIEKLKEEIDAC	not failed
ECTIKNNIENILRNSYINVGYEEVRSPTLEFYDVYNLENQPISQEKMYKLFDNTGRILVLRPDMTTPIARICATKLKNRVYPLKLSYTGNIYRMNKALNGKISEITQSGIEILGFSSLKADAEVIITAIKAILKTGLKNFKIEIGQVEFFKSIISDTALKEQDTEKLRNFIENKNFSKVEEFILRNSDLIGETSSKVLMNLPNLFGGKEVIEKAEQLTSNKQAIEALKKVRDLYDIVKRAGFGEYILIDLGMVQHINYYTGLIFRGYAHGIGDDLLSGGRYDKLLGQFGYDIPATGLAINVDNLVA	failed
EEGLEIATLKRIVADMHAAAETAGVHIVTGDTKVVPKGTCDKLYITTAGVGIIPEGRTSADPQIGDAIIVSGPIADHGMAVMMARGDLAISAPIESDTRSVNGQIEALYAAGVTPRWMRDATRGGLATVMNELARATGLGVALNDPLPVRDMTRAACDMLGIDPMYVANEGTFVAIVPADQVDTALATIPEASCIGQIVEQPAASVVLRTGFGGSRMVDMLVGDPLPRIC	failed
EELIEIREARMDDLDTIAKFNYNLAKETEGKELDMDVLTKGVKALLLDERKGKYHVYTVFDKVVAQIMYTYEWSDWRNGNFLWIQSVYVDKEYRRKGIFNYLFNYIKNICDKDENIVGMRLYVEKENINAKATYESLNMYECDYNMYEYEVIHS	not failed
EFYCEVLLLDESKLTLTTQQQGIKKSTKGSVVLDHVFHHVNLVEIDYFGLRYCDRSHQTYWLDPAKTLAEHKELINTGPPYTLYFGIK	failed
EIAVPTLFVHGYSGTANSFKGMINRLADDGIVTESLVMTVAADGSVSTTGSYDKFSHNPTIQVIFEDNKSSMVNQTQWIQNVMKELKNNYHIEKVDAVGHSMGGVSLTSYIEKVGSDKAYPVLENLVLIGAPLNGLVVGDNGVTAYDLTDEGPKQSSDRYSEFMKNKQKIPTNLQVLNIAGDMLDGTKSDGSVSVASALSGKFIFEGQAKSYEEKIFTGKKAAHSKLHENTDVDAKVANFLWGTEKVD	failed
EITSANTEWFFNPNAYVIIAESVESGKIVGGARIHIVGGTQPLPIEDAIGKMDPHIYKLVEEHGKKGSGELCGLWNAREVAGMGISTMLTRAAIALAIQLNLSTLFVICAERTYQNIFKDQGFEIIP	failed
EKEFYLDSSSEALEEKAITHTSKKPDTPEEITISLNGHLFTGNTEQPLLMQVEEAGLSINNSCRAGLCGACRVTLESGEVEQEDSPALNQKLKEAGMILACCSVPKTDVEIVD	failed
EKRKVLIPIDFSNYSLKACQFGFSFANAINSEVVLLHAYFSPIYVPTIPYGTDNFNFQIEREESVKSMIETVHNELNKLSDTIKKKVESGEFPNIKYTCILRDGIPEEEILRYAKEYNPQIIIMGTRGRSQKDIDLIGSVTAEVIERSKSFVYAIPEHTPLK	failed
EKTVRVVINFKKTQKTIVRVSPHASLQELAPIICSKCEFDPLHTLLLKDYQSQEPLDLTKSLNDLGLRELYAMDVNRE	not failed
ELEPGAFSELYQRYRHCDAPICLYEQGRDSFEDEGRWRLILCATCGSHGTHRDCSSLRPNSKKWECNECLPA	not failed
EMGVAYLTEVVVNEVVEAHEVPEVQHALNINSSESLIHIVRTRRLNQHVKIVDEDYFLKSIVSDIGNDVASDSIYDYLEKVLNLNISYSSKSITFEPFDEQAYQLFGDVSVAYSATVRSIVYLENTMPFQYNISKHLANEFKFNDFSRRRIK	failed
